According to US20260092115A1 (Chugai, published 2026):

Experiments:
[1] = biological target: T1, human FcγRIIb extracellular domain, His-tagged (human, UniProt P31994 43-217); test: binding amount of this antibody divided by that of 04H1637-G1m/04L1610-lam1; SPR pH 7.4
T1 construct: extracellular domain; also called hFcγR IIb
T1 sequence (looked up): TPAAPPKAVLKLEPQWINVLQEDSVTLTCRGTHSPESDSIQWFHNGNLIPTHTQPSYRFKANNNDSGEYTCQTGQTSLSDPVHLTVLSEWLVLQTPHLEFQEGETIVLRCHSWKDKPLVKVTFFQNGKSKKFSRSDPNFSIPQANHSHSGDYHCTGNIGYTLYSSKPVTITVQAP

[2] = biological target: T2, human FcγRIa extracellular domain, His-tagged (human, UniProt P12314 16-292); test: KD of 04H1637-G1m/04L1610-lam1 divided by KD of this antibody; SPR pH 7.4
T2 construct: also called hFcγR Ia

[3] = biological target: T3, human FcγRIIa, type R, extracellular domain, His-tagged (human, UniProt P12318 34-217); test: as above
T3 construct: extracellular domain; also called hFcγR IIa R
T3 sequence (looked up): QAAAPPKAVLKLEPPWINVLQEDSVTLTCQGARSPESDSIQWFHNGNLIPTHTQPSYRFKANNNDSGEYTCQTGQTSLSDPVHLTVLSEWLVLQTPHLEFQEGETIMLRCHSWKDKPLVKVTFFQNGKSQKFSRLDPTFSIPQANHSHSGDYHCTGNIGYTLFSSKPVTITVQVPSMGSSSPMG

[4] = biological target: T4, human FcγRIIa, type H, extracellular domain, His-tagged (human, UniProt P12318 34-217); test: as above
T4 construct: extracellular domain; also called hFcγR IIa H
T4 sequence (looked up): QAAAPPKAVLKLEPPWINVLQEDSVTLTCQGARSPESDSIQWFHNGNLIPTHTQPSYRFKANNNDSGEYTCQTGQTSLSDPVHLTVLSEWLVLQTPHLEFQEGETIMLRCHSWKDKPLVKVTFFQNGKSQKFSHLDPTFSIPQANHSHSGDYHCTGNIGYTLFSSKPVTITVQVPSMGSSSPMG

[5] = biological target: T5, human FcγRIIIa, allotype F158, extracellular domain, His-tagged (human, UniProt P08637 17-208); test: as above
T5 construct: extracellular domain; also called hFcγR IIIa F

[6] = biological target: T6, human FcγRIIIa, allotype V158, extracellular domain, His-tagged (human, UniProt P08637 17-208); test: as above
T6 construct: extracellular domain; also called hFcγR IIIa V

[7] = biological target: T1, human FcγRIIb extracellular domain, …; test: SPR Biacore T200, 25C, pH 7.4; FcγRIIb at 1000 nM, corrected by captured antibody
Outline: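 Antibodies captured via anti-Fab-lambda on SA chip; FcγRs flowed in 50 mM Na-phosphate, 150 mM NaCl, 0.05% Tween20, pH 7.4, 25° C. KD by 1:1 Langmuir (FcγRIa, FcγRIIIa) or steady-state model (FcγRIIa); FcγRIIb binding normalised to captured antibody amount.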

human FcRn = biological target: T7, human FcRn (human, UniProt P55899 24-290; P61769 21-119); test: KD of 04H1637-G1m/04L1610-lam1 divided by KD of this antibody; SPR pH 6.0
T7 construct: Prepared by the method of WO 2010/107110; also called hFcRn
Outline: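 Biacore T200 SPR at 25 °C in 50 mM Na-phosphate, 150 mM NaCl, 0.05% Tween20, pH 6.0; antibodies captured via anti-Fab-lambda on SA chip, FcRn as analyte. KD from steady-state model; reference KD (native IgG1 variant) divided by each variant's KD.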

[8] = biological target: T8, human CTLA4 (soluble analyte of the Biacore assays of Examples 3-3, 4 and 5) (human, UniProt P16410 36-161); test: SPR 37C, Ab on Protein G, 1000 nM CTLA4, no ATP; no ATP; binding amount at 1000 nM CTLA4
T8 construct: also called hCTLA4
T8 sequence: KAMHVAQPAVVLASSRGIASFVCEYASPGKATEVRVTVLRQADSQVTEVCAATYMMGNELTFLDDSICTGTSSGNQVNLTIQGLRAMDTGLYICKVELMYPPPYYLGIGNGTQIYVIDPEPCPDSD
Procedure: (§1) Biacore T200 was used to measure the binding of the generated antibodies to human CTLA4. 20 mM ACES (pH 7.4), 150 mM NaCl, 2 mM MgCl₂, 0.05% Tween 20 with ATP added to the desired concentration was used as the running buffer, and the assay was performed at 37° C. First, Protein G (CALBIOCHEM) was immobilized onto a Series S Sensor Chip CM3 (GE Healthcare), and the antibodies were captured by interacting an antibody solution prepared in an ATP-free running buffer with the chip. Next, by interacting with a human CTLA4 solution prepared in a running buffer containing ATP to the desired concentration, or a human CTLA4 solution prepared in a running buffer containing no ATP, the binding ability of the antibody to human CTLA4 in the presence or absence of ATP was evaluated. Chips were regenerated with 25 mM NaOH and 10 mM Glycine-HCl (pH 1.5), and assay was performed by repeatedly capturing antibodies. The dissociation constant of each antibody for CTLA4 was calculated using Biacore T200 Evaluation Software 2.0. Specifically, the binding rate constant ka (L/mol/s) and the dissociation rate constant kd (1/s) were calculated by global fitting of the sensorgrams obtained by the measurement, using a 1:1 Langmuir binding model. The dissociation constant KD (mol/L) was calculated from those values. Alternatively, the dissociation constant KD (mol/L) was calculated by the steady state model. In addition, the binding amount of CTLA4 per unit amount of antibody was calculated by correcting the amount of CTLA4 bound as calculated from the sensorgram obtained by the assay with the amount of antibody captured onto the chip surface.
(§2) The KD values marked with an * in the table were calculated using the steady state model. It was shown that all the variants prepared using 04H0150-G1m/04L0072-lam1 as the parent antibody had enhanced binding in the presence of ATP as compared to 04H0150-G1m/04L0072-lam1.

[9] = biological target: T8, human CTLA4 (soluble analyte of the …); test: SPR 37C, Ab on Protein G, 1000 nM CTLA4, ATP 10 uM; ATP 10 uM; binding amount at 1000 nM CTLA4
Procedure: as §1, §2

[10] = biological target: T8, human CTLA4 (soluble analyte of the …); test: SPR 37C, Ab on Protein G, 1000 nM CTLA4, ATP 100 uM; ATP 100 uM; binding amount at 1000 nM CTLA4
Procedure: as §1, §2

[11] = biological target: T8, human CTLA4 (soluble analyte of the …); test: SPR 37C, Ab on Protein G, 1000 nM CTLA4, ATP 1 uM; ATP 1 uM; binding amount at 1000 nM CTLA4
Procedure: as §1, §2

T2 sequence (P12314 16-292): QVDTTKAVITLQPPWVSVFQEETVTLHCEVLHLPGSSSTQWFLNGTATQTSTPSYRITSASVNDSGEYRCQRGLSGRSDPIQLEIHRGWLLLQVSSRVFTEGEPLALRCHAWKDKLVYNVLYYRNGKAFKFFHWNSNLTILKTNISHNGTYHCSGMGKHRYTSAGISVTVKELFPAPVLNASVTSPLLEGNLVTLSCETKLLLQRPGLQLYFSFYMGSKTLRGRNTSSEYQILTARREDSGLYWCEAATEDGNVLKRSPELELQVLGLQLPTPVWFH
T7 sequence (P55899 24-290 limits assumed, chain 1 of 2): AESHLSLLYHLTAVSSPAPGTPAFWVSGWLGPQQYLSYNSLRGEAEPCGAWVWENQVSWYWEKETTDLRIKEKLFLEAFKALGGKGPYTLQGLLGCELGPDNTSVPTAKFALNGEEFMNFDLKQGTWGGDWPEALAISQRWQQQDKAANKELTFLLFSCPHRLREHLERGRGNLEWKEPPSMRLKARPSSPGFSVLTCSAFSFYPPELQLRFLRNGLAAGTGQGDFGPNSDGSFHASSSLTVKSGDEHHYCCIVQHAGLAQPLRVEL
T7 sequence (P61769 21-119 limits assumed, chain 2 of 2): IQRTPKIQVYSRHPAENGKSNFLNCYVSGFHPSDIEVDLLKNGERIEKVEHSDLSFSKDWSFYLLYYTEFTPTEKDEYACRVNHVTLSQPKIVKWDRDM
T6 sequence (P08637 17-208 F176V): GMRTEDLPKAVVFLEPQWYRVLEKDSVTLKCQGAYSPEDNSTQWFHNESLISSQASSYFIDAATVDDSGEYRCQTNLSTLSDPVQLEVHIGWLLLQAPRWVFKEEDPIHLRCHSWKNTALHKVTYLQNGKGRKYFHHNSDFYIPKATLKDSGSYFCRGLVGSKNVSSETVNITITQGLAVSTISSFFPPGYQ
T5 sequence (P08637 17-208): as the sequence (P08637 17-208 F176V) above, with V160F counted along it

B1: 04H1654-KT481/04L1612-lam1//04H1656-HT498/04L1612-lam1 (antibody, IgG1)
heavy 1: QVQLVESGGGVVQPGGSLRLSCAASGFTFSSKTMNWVRQAPGKGLEWVSSISTQSHYIYYARSVRGRFTISRDNAKNSLYLQMNSLRAEDTAVYYCARYGKREDMLWVFDYWGQGTLVTVSSASTKGPSVFPLAPSSKSTSGGTAALGCLVKDYFPEPVTVSWNSGALTSGVHTFPAVLQSSGLYSLSSVVTVPSSSLGTQTYICNVNHKPSNTKVDKRVEPKSCDKTHTCPPCPAPEFQWGPMVFLFPPKPKDVLMISRTPEVTCVVVDVSDEEPEVKFNWYVDGVEVHNAKTKPREEQYNATYRVVSVLPVLHQDWLNGKEYKCKVSNDALPAPEEKTISKAKGQPREPQVYTLPPSRKEMTKNQVSLTCLVKGFYPSDIAVEWESNGQPENNYKTTPPVLDSDGSFFLYSKLTVDKSRWQQGNVFSCSVMHEALHAHTTRKELSLSP
heavy 2: QVQLVESGGGVVQPGGSLRLSCAASGFTFSSKTMNWVRQAPGKGLEWVSSISTQSHYIYYAESVRGRFTISRDNAKNSLYLQMNSLRAEDTAVYYCARYGAREDMLWVFDYWGQGTLVTVSSASTKGPSVFPLAPSSKSTSGGTAALGCLVKDYFPEPVTVSWNSGALTSGVHTFPAVLQSSGLYSLSSVVTVPSSSLGTQTYICNVNHKPSNTKVDKRVEPKSCDKTHTCPPCPAPELLAGPSVFLFPPKPKDVLMISRTPEVTCVVVDVSHEEPEVKFNWYVDGVEVHNAKTKPREEQYNATYRVVSVLPVLHQDWLNGKEYKCKVSNDALPAPEEETISKAKGQPREPQVYTLPPSREEMTKNQVSLTCLVKGFYPSDIAVEWESNGQPENNYKTTPPVLDSDGSFFLYSKLTVDKSRWQQGNVFSCSVMHEALHAHTTREELSLSP
light: QSALTQPPSASGSPGQSVTISCEGPSTGVGDYTYVHWYQQHPGKAPKLMIYFTSKKPSGVPDRFSGSKSGNTASLTVSGLQAEDEADYYCQTYAAPLGPMFGGGTKLTVLGQPKAAPSVTLFPPSSEELQANKATLVCLISDFYPGAVTVAWKADSSPVKAGVETTTPSKQSNNKYAASSYLSLTPEQWKSHRSYSCQVTHEGSTVEKTVAPTECS
notes: Heterodimerized IgG1 Fc variant with N434A/Y436T/Q438R/S440E
[1]
  Relative binding amount: 2.8 ratio
[2]
  Relative value to KD between G1m and hFcγRs: 1.1 ratio
[3]
  Relative value to KD between G1m and hFcγRs: 7.6 ratio
[4]
  Relative value to KD between G1m and hFcγRs: 6.4 ratio
[5]
  Relative value to KD between G1m and hFcγRs: 479 ratio
[6]
  Relative value to KD between G1m and hFcγRs: 145 ratio
[7]
  Binding amount: 0.022 RU per RU of captured antibody
Human FcRn
  Relative value to KD between G1m and hFcRn: 2.2 ratio

B2: 04H1077-G1m/04L1034-lam1 (antibody, human IgG1, lambda, V domains shown)
VH: EVQLVESGGDLVKPGGGLRLSCAASGFTFSSRTMNWVRQAPGKGLEWVSSISTRSGYIYYAESVKGRFTISRDNAKNSLYLQMNSLRAEDTAVYYCARYGKREDMLWVFDYWGQGTLVTVSS
VL: QSALTQPPSASGSPGQTVTISCDGPSTDVGDYNWVSWYQQHPGKAPKLMIYFTSKKPSGVPDRFSGSKSGNTASLTVSGLQAEDEADYFCSTYAAPLGPMFGGGTKLTVLG
[8]
  Binding to Human CTLA4 (amount per unit antibody): 0.004
[9]
  Binding to Human CTLA4 (amount per unit antibody): 0.041
[10]
  Binding to Human CTLA4 (amount per unit antibody): 0.114
[11]
  Binding to Human CTLA4 (amount per unit antibody): 0.007

B3: 04H1077-G1m/04L1067-lam1 (antibody, human IgG1, lambda, V domains shown)
VH: EVQLVESGGDLVKPGGGLRLSCAASGFTFSSRTMNWVRQAPGKGLEWVSSISTRSGYIYYAESVKGRFTISRDNAKNSLYLQMNSLRAEDTAVYYCARYGKREDMLWVFDYWGQGTLVTVSS
VL: QSALTQPPSASGSPGQTVTISCDGPSTGVGDYNYVHWYQQHPGKAPKLMIYFTSKKPSGVPDRFSGSKSGNTASLTVSGLQAEDEADYFCSTYAAPLGPMFGGGTKLTVLG
[8]
  Binding to Human CTLA4 (amount per unit antibody): 0.012
[9]
  Binding to Human CTLA4 (amount per unit antibody): 0.131
[10]
  Binding to Human CTLA4 (amount per unit antibody): 0.192
[11]
  Binding to Human CTLA4 (amount per unit antibody): 0.041

B4: 04H1077-G1m/04L1086-lam1 (antibody, human IgG1, lambda, V domains shown)
VH: EVQLVESGGDLVKPGGGLRLSCAASGFTFSSRTMNWVRQAPGKGLEWVSSISTRSGYIYYAESVKGRFTISRDNAKNSLYLQMNSLRAEDTAVYYCARYGKREDMLWVFDYWGQGTLVTVSS
VL: QSALTQPPSASGSPGQTVTISCDGPSTGVGDYNYVHWYQQHPGKAPKLMIYFTSKKPSGVPDRFSGSKSGNTASLTVSGLQAEDEADYFCQTYAAPLGPMFGGGTKLTVLG
[8]
  Binding to Human CTLA4 (amount per unit antibody): 0.01
[9]
  Binding to Human CTLA4 (amount per unit antibody): 0.106
[10]
  Binding to Human CTLA4 (amount per unit antibody): 0.181
[11]
  Binding to Human CTLA4 (amount per unit antibody): 0.031

B5: 04H1077-G1m/04L1041-lam1 (antibody, human IgG1, lambda, V domains shown)
VH: EVQLVESGGDLVKPGGGLRLSCAASGFTFSSRTMNWVRQAPGKGLEWVSSISTRSGYIYYAESVKGRFTISRDNAKNSLYLQMNSLRAEDTAVYYCARYGKREDMLWVFDYWGQGTLVTVSS
VL: QSALTQPPSASGSPGQTVTISCDGPSTDVGDYNYVHWYQQHPGKAPKLMIYFTSKKPSGVPDRFSGSKSGNTASLTVSGLQAEDEADYFCSTYAAPLGPMFGGGTKLTVLG
[8]
  Binding to Human CTLA4 (amount per unit antibody): 0.006
[9]
  Binding to Human CTLA4 (amount per unit antibody): 0.094
[10]
  Binding to Human CTLA4 (amount per unit antibody): 0.172
[11]
  Binding to Human CTLA4 (amount per unit antibody): 0.023
